Target: T1, recombinant human DKK1 (human, UniProt O94907 32-266)
T1 sequence: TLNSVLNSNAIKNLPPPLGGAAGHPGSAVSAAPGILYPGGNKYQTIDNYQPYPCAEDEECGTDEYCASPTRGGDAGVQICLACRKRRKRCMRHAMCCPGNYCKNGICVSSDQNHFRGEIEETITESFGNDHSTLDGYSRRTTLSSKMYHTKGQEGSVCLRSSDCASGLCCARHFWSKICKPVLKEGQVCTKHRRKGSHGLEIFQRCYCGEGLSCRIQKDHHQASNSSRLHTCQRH
Test: cell-based or functional assay

B1: anti-DKK1 FAb MOR04910 (Fab, V domains shown)
VH: QVQLVESGGGLVQPGGSLRLSCAASGFTFSSYWMSWVRQAPGKGLEWVSGISYSGSNTHYADSVKGRFTISRDNSKNTLYLQMNSLRAEDTAVYYCARMGIDLDYWGQGTLVTVSS
VL: DIALTQPASVSGSPGQSITISCTGTSSDVGGFNYVSWYQQHPGKAPKLMIHDGSNRPSGVSNRFSGSKSGNTASLTISGLQAEDEADYYCQSWDVSPITAVFGGGTKLTVLG
- EC50, reactivation of DKK1 inhibited wnt signaling: < 1 nM

B2: anti-DKK1/4 antibody (antibody, V domains shown)
VH: B1 VH
VL: B1 VL
- apparent EC50, TCF/LEF luciferase reporter (SuperTopflash, Kremen) with 10 ng/ml rhDKK1 and Wnt3a conditioned medium: 0.16 nM
